Our source for the Kd values is patent publication US20240400708A1.

The target in test [1] is feline FcRn complex (FcRn-α subunit and β-microglobulin) (feline). Briefly: SPR (Biacore), FcRn on SA chip, pH 7.4.
Test [2] has the same target. As to the kind of experiment: SPR (Biacore), FcRn on SA chip, pH 6. (In general: In SPR one partner is held on a chip, and binding of the other changes the refractive index at the surface.)

B1: feline IgG1a mutant ID No. 349: S252Y, S428M, S434F, Q311K (antibody, part only; not given: variable domains and light chain, not shown: another chain or arm of the molecule)
constant: ASTTAPSVFPLAPSCGTTSGATVALACLVLGYFPEPVTVSWNSGALTSGVHTFPAVLQASGLYSLSSMVTVPSSRWLSDTFTCNVAHPPSNTKVDKTVRKTDHPPGPKPCDCPKCPPPEMLGGPSIFIFPPKPKDTLYISRTPEVTCLVVDLGPDDSDVQITWFVDNTQVYTAKTSPREEQFNSTYRVVSVLPILHKDWLKGKEFKCKVNSKSLPSPIERTISKAKGQPHEPQVYVLPPAQEELSRNKVSVTCLIKSFHPPDIAVEWEITGQPEPENNYRTTPPQLDSDGTYFVYSKLSVDRSHWQRGNTYTCSVMHEALHFHHTQKSLTQSPGK
Turning to B1, the figures for the dissociation constant (Kd) in test [1] and in test [2] were 4.78 nM and 0.0192 nM, respectively.

B2: feline IgG1a mutant ID No. 359: S252Y, S434R, D312A (antibody, part only; not given: variable domains and light chain, not shown: another chain or arm of the molecule)
constant: ASTTAPSVFPLAPSCGTTSGATVALACLVLGYFPEPVTVSWNSGALTSGVHTFPAVLQASGLYSLSSMVTVPSSRWLSDTFTCNVAHPPSNTKVDKTVRKTDHPPGPKPCDCPKCPPPEMLGGPSIFIFPPKPKDTLYISRTPEVTCLVVDLGPDDSDVQITWFVDNTQVYTAKTSPREEQFNSTYRVVSVLPILHQAWLKGKEFKCKVNSKSLPSPIERTISKAKGQPHEPQVYVLPPAQEELSRNKVSVTCLIKSFHPPDIAVEWEITGQPEPENNYRTTPPQLDSDGTYFVYSKLSVDRSHWQRGNTYTCSVSHEALHRHHTQKSLTQSPGK
As to B2, the equilibrium dissociation constant (Kd) was 25.3 nM in test [1] and 0.626 nM in test [2].

B3: feline IgG1a mutant ID No. 354: S252Y, S428M, S434F, T250Q (antibody, part only; not given: variable domains and light chain, not shown: another chain or arm of the molecule)
constant: ASTTAPSVFPLAPSCGTTSGATVALACLVLGYFPEPVTVSWNSGALTSGVHTFPAVLQASGLYSLSSMVTVPSSRWLSDTFTCNVAHPPSNTKVDKTVRKTDHPPGPKPCDCPKCPPPEMLGGPSIFIFPPKPKDQLYISRTPEVTCLVVDLGPDDSDVQITWFVDNTQVYTAKTSPREEQFNSTYRVVSVLPILHQDWLKGKEFKCKVNSKSLPSPIERTISKAKGQPHEPQVYVLPPAQEELSRNKVSVTCLIKSFHPPDIAVEWEITGQPEPENNYRTTPPQLDSDGTYFVYSKLSVDRSHWQRGNTYTCSVMHEALHFHHTQKSLTQSPGK
As to B3, the Kd is 4.46 nM in test [1] and 0.0192 nM in test [2].

B4: feline IgG1a mutant ID No. 352: S252Y, S428M, S434F, Q311Y (antibody, part only; not given: Variable domains, not shown: another chain or arm of the molecule)
constant: ASTTAPSVFPLAPSCGTTSGATVALACLVLGYFPEPVTVSWNSGALTSGVHTFPAVLQASGLYSLSSMVTVPSSRWLSDTFTCNVAHPPSNTKVDKTVRKTDHPPGPKPCDCPKCPPPEMLGGPSIFIFPPKPKDTLYISRTPEVTCLVVDLGPDDSDVQITWFVDNTQVYTAKTSPREEQFNSTYRVVSVLPILHYDWLKGKEFKCKVNSKSLPSPIERTISKAKGQPHEPQVYVLPPAQEELSRNKVSVTCLIKSFHPPDIAVEWEITGQPEPENNYRTTPPQLDSDGTYFVYSKLSVDRSHWQRGNTYTCSVMHEALHFHHTQKSLTQSPGK
In the case of B4, the figures for the Kd in test [1] and in test [2] were 6.48 nM and 0.0271 nM, respectively.

B5: feline IgG1a mutant ID No. 368: S252Y, S434R, L314K (antibody, part only; not given: Variable domains, not shown: another chain or arm of the molecule)
constant: ASTTAPSVFPLAPSCGTTSGATVALACLVLGYFPEPVTVSWNSGALTSGVHTFPAVLQASGLYSLSSMVTVPSSRWLSDTFTCNVAHPPSNTKVDKTVRKTDHPPGPKPCDCPKCPPPEMLGGPSIFIFPPKPKDTLYISRTPEVTCLVVDLGPDDSDVQITWFVDNTQVYTAKTSPREEQFNSTYRVVSVLPILHQDWKKGKEFKCKVNSKSLPSPIERTISKAKGQPHEPQVYVLPPAQEELSRNKVSVTCLIKSFHPPDIAVEWEITGQPEPENNYRTTPPQLDSDGTYFVYSKLSVDRSHWQRGNTYTCSVSHEALHRHHTQKSLTQSPGK
For the molecule B5, the results for the dissociation constant Kd in test [1] and in test [2] were 25.6 nM and 1.3 nM, respectively.

B6: feline IgG1a mutant ID No. 356: S252Y, S428M, S434F, T403R (antibody, part only; not given: Variable domains, not shown: another chain or arm of the molecule)
constant: ASTTAPSVFPLAPSCGTTSGATVALACLVLGYFPEPVTVSWNSGALTSGVHTFPAVLQASGLYSLSSMVTVPSSRWLSDTFTCNVAHPPSNTKVDKTVRKTDHPPGPKPCDCPKCPPPEMLGGPSIFIFPPKPKDTLYISRTPEVTCLVVDLGPDDSDVQITWFVDNTQVYTAKTSPREEQFNSTYRVVSVLPILHQDWLKGKEFKCKVNSKSLPSPIERTISKAKGQPHEPQVYVLPPAQEELSRNKVSVTCLIKSFHPPDIAVEWEITGQPEPENNYRTTPPQLDSDGRYFVYSKLSVDRSHWQRGNTYTCSVMHEALHFHHTQKSLTQSPGK
As to B6, the Kd in test [1] amounted to 9.98 nM; in test [2], 0.0249 nM.

B7: feline IgG1a mutant ID No. 360: S252Y, S434R, D312H (antibody, part only; not given: Variable domains, not shown: another chain or arm of the molecule)
constant: ASTTAPSVFPLAPSCGTTSGATVALACLVLGYFPEPVTVSWNSGALTSGVHTFPAVLQASGLYSLSSMVTVPSSRWLSDTFTCNVAHPPSNTKVDKTVRKTDHPPGPKPCDCPKCPPPEMLGGPSIFIFPPKPKDTLYISRTPEVTCLVVDLGPDDSDVQITWFVDNTQVYTAKTSPREEQFNSTYRVVSVLPILHQHWLKGKEFKCKVNSKSLPSPIERTISKAKGQPHEPQVYVLPPAQEELSRNKVSVTCLIKSFHPPDIAVEWEITGQPEPENNYRTTPPQLDSDGTYFVYSKLSVDRSHWQRGNTYTCSVSHEALHRHHTQKSLTQSPGK
In the case of B7, the Kd in test [1] was found to be 43.1 nM; in test [2], 1.09 nM.

B8: feline IgG1a mutant ID No. 367: S252Y, S434R, G402R (antibody, part only; not given: Variable domains, not shown: another chain or arm of the molecule)
constant: ASTTAPSVFPLAPSCGTTSGATVALACLVLGYFPEPVTVSWNSGALTSGVHTFPAVLQASGLYSLSSMVTVPSSRWLSDTFTCNVAHPPSNTKVDKTVRKTDHPPGPKPCDCPKCPPPEMLGGPSIFIFPPKPKDTLYISRTPEVTCLVVDLGPDDSDVQITWFVDNTQVYTAKTSPREEQFNSTYRVVSVLPILHQDWLKGKEFKCKVNSKSLPSPIERTISKAKGQPHEPQVYVLPPAQEELSRNKVSVTCLIKSFHPPDIAVEWEITGQPEPENNYRTTPPQLDSDRTYFVYSKLSVDRSHWQRGNTYTCSVSHEALHRHHTQKSLTQSPGK
Take B8: the dissociation constant Kd came out at 44.8 nM in test [1] and 0.885 nM in test [2].

B9: feline IgG1a mutant ID No. 361: S252Y, S434R, D312P (antibody, part only; not given: Variable domains, not shown: another chain or arm of the molecule)
constant: ASTTAPSVFPLAPSCGTTSGATVALACLVLGYFPEPVTVSWNSGALTSGVHTFPAVLQASGLYSLSSMVTVPSSRWLSDTFTCNVAHPPSNTKVDKTVRKTDHPPGPKPCDCPKCPPPEMLGGPSIFIFPPKPKDTLYISRTPEVTCLVVDLGPDDSDVQITWFVDNTQVYTAKTSPREEQFNSTYRVVSVLPILHQPWLKGKEFKCKVNSKSLPSPIERTISKAKGQPHEPQVYVLPPAQEELSRNKVSVTCLIKSFHPPDIAVEWEITGQPEPENNYRTTPPQLDSDGTYFVYSKLSVDRSHWQRGNTYTCSVSHEALHRHHTQKSLTQSPGK
For the molecule B9, the Kd came out at 20.7 nM in test [1] and 0.188 nM in test [2].

B10: feline IgG1a mutant ID No. 355: S252Y, S428M, S434F, T256M (antibody, part only; not given: variable domains and light chain, not shown: another chain or arm of the molecule)
constant: ASTTAPSVFPLAPSCGTTSGATVALACLVLGYFPEPVTVSWNSGALTSGVHTFPAVLQASGLYSLSSMVTVPSSRWLSDTFTCNVAHPPSNTKVDKTVRKTDHPPGPKPCDCPKCPPPEMLGGPSIFIFPPKPKDTLYISRMPEVTCLVVDLGPDDSDVQITWFVDNTQVYTAKTSPREEQFNSTYRVVSVLPILHQDWLKGKEFKCKVNSKSLPSPIERTISKAKGQPHEPQVYVLPPAQEELSRNKVSVTCLIKSFHPPDIAVEWEITGQPEPENNYRTTPPQLDSDGTYFVYSKLSVDRSHWQRGNTYTCSVMHEALHFHHTQKSLTQSPGK
On to B10, for which the equilibrium dissociation constant (Kd) in test [1] amounted to 15.7 nM; in test [2], 0.0964 nM.

B11: feline IgG1a mutant ID No. 363: S252Y, S434R, D399T (antibody, part only; not given: Variable domains, not shown: another chain or arm of the molecule)
constant: ASTTAPSVFPLAPSCGTTSGATVALACLVLGYFPEPVTVSWNSGALTSGVHTFPAVLQASGLYSLSSMVTVPSSRWLSDTFTCNVAHPPSNTKVDKTVRKTDHPPGPKPCDCPKCPPPEMLGGPSIFIFPPKPKDTLYISRTPEVTCLVVDLGPDDSDVQITWFVDNTQVYTAKTSPREEQFNSTYRVVSVLPILHQDWLKGKEFKCKVNSKSLPSPIERTISKAKGQPHEPQVYVLPPAQEELSRNKVSVTCLIKSFHPPDIAVEWEITGQPEPENNYRTTPPQLTSDGTYFVYSKLSVDRSHWQRGNTYTCSVSHEALHRHHTQKSLTQSPGK
As to B11, the Kd in test [1] was 38.9 nM; in test [2] it was 0.923 nM.

B12: feline IgG1a mutant ID No. 364: S252Y, S434R, D401R (antibody, part only; not given: Variable domains, not shown: another chain or arm of the molecule)
constant: ASTTAPSVFPLAPSCGTTSGATVALACLVLGYFPEPVTVSWNSGALTSGVHTFPAVLQASGLYSLSSMVTVPSSRWLSDTFTCNVAHPPSNTKVDKTVRKTDHPPGPKPCDCPKCPPPEMLGGPSIFIFPPKPKDTLYISRTPEVTCLVVDLGPDDSDVQITWFVDNTQVYTAKTSPREEQFNSTYRVVSVLPILHQDWLKGKEFKCKVNSKSLPSPIERTISKAKGQPHEPQVYVLPPAQEELSRNKVSVTCLIKSFHPPDIAVEWEITGQPEPENNYRTTPPQLDSRGTYFVYSKLSVDRSHWQRGNTYTCSVSHEALHRHHTQKSLTQSPGK
B12: the equilibrium dissociation constant (Kd) is 24.4 nM in test [1] and 0.732 nM in test [2].

B13: feline IgG1a mutant ID No. 351: S252Y, S428M, S434F, Q311W (antibody, part only; not given: Variable domains, not shown: another chain or arm of the molecule)
constant: ASTTAPSVFPLAPSCGTTSGATVALACLVLGYFPEPVTVSWNSGALTSGVHTFPAVLQASGLYSLSSMVTVPSSRWLSDTFTCNVAHPPSNTKVDKTVRKTDHPPGPKPCDCPKCPPPEMLGGPSIFIFPPKPKDTLYISRTPEVTCLVVDLGPDDSDVQITWFVDNTQVYTAKTSPREEQFNSTYRVVSVLPILHWDWLKGKEFKCKVNSKSLPSPIERTISKAKGQPHEPQVYVLPPAQEELSRNKVSVTCLIKSFHPPDIAVEWEITGQPEPENNYRTTPPQLDSDGTYFVYSKLSVDRSHWQRGNTYTCSVMHEALHFHHTQKSLTQSPGK
As for B13, the dissociation constant (Kd) in test [1] amounted to 3.35 nM; in test [2], 0.011 nM.

B14: feline IgG1a mutant ID No. 369: S252Y, S434R, P247L (antibody, part only; not given: Variable domains, not shown: another chain or arm of the molecule)
constant: ASTTAPSVFPLAPSCGTTSGATVALACLVLGYFPEPVTVSWNSGALTSGVHTFPAVLQASGLYSLSSMVTVPSSRWLSDTFTCNVAHPPSNTKVDKTVRKTDHPPGPKPCDCPKCPPPEMLGGPSIFIFPPKLKDTLYISRTPEVTCLVVDLGPDDSDVQITWFVDNTQVYTAKTSPREEQFNSTYRVVSVLPILHQDWLKGKEFKCKVNSKSLPSPIERTISKAKGQPHEPQVYVLPPAQEELSRNKVSVTCLIKSFHPPDIAVEWEITGQPEPENNYRTTPPQLDSDGTYFVYSKLSVDRSHWQRGNTYTCSVSHEALHRHHTQKSLTQSPGK
Turning to B14, the Kd in test [1] stood at 26.5 nM; in test [2], 0.442 nM.

B15: feline IgG1a mutant ID No. 362: S252Y, S434R, D399M (antibody, part only; not given: Variable domains, not shown: another chain or arm of the molecule)
constant: ASTTAPSVFPLAPSCGTTSGATVALACLVLGYFPEPVTVSWNSGALTSGVHTFPAVLQASGLYSLSSMVTVPSSRWLSDTFTCNVAHPPSNTKVDKTVRKTDHPPGPKPCDCPKCPPPEMLGGPSIFIFPPKPKDTLYISRTPEVTCLVVDLGPDDSDVQITWFVDNTQVYTAKTSPREEQFNSTYRVVSVLPILHQDWLKGKEFKCKVNSKSLPSPIERTISKAKGQPHEPQVYVLPPAQEELSRNKVSVTCLIKSFHPPDIAVEWEITGQPEPENNYRTTPPQLMSDGTYFVYSKLSVDRSHWQRGNTYTCSVSHEALHRHHTQKSLTQSPGK
Consider B15, for which the Kd in test [1] was 43.6 nM; in test [2], 1.14 nM.

As usually defined, the Kd is the free concentration of one partner at which half of the binding sites on the other are occupied at equilibrium, for simple one-to-one binding.
